# B1: Complement factor H (Homo sapiens), P08603-1 (parent)
# chain: MRLLAKIICLMLWAICVAEDCNELPPRRNTEILTGSWSDQTYPEGTQAIYKCRPGYRSLGNVIMVCRKGEWVALNPLRKCQKRPCGHPGDTPFGTFTLTGGNVFEYGVKAVYTCNEGYQLLGEINYRECDTDGWTNDIPICEVVKCLPVTAPENGKIVSSAMEPDREYHFGQAVRFVCNSGYKIEGDEEMHCSDDGFWSKEKPKCVEISCKSPDVINGSPISQKIIYKENERFQYKCNMGYEYSERGDAVCTESGWRPLPSCEEKSCDNPYIPNGDYSPLRIKHRTGDEITYQCRNGFYPATRGNTAKCTSTGWIPAPRCTLKPCDYPDIKHGGLYHENMRRPYFPVAVGKYYSYYCDEHFETPSGSYWDHIHCTQDGWSPAVPCLRKCYFPYLENGYNQNYGRKFVQGKSIDVACHPGYALPKAQTTVTCMENGWSPTPRCIRVKTCSKSSIDIENGFISESQYTYALKEKAKYQCKLGYVTADGETSGSITCGKDGWSAQPTCIKSCDIPVFMNARTKNDFTWFKLNDTLDYECHDGYESNTGSTTGSIVCGYNGWSDLPICYERECELPKIDVHLVPDRKKDQYKVGEVLKFSCKPGFTIVGPNSVQCYHFGLSPDLPICKEQVQSCGPPPELLNGNVKEKTKEEYGHSEVVEYYCNPRFLMKGPNKIQCVDGEWTTLPVCIVEESTCGDIPELEHGWAQLSSPPYYYGDSVEFNCSESFTMIGHRSITCIHGVWTQLPQCVAIDKLKKCKSSNLIILEEHLKNKKEFDHNSNIRYRCRGKEGWIHTVCINGRWDPEVNCSMAQIQLCPPPPQIPNSHNMTTTLNYRDGEKVSVLCQENYLIQEGEEITCKDGRWQSIPLCVEKIPCSQPPQIEHGTINSSRSSQESYAHGTKLSYTCEGGFRISEENETTCYMGKWSSPPQCEGLPCKSPPEISHGVVAHMSDSYQYGEEVTYKCFEGFGIDGPAIAKCLGEKWSHPPSCIKTDCLSLPSFENAIPMGEKKDVYKAGEQVTYTCATYYKMDGASNVTCINSRWTGRPTCRDTSCVNPPTVQNAYIVSRQMSKYPSGERVRYQCRSPYEMFGDEEVMCLNGNWTEPPQCKDSTGKCGPPPPIDNGDITSFPLSVYAPASSVEYQCQNLYQLEGNKRITCRNGQWSEPPKCLHPCVISREIMENYNIALRWTAKQKLYSRTGESVEFVCKRGYRLSSRSHTLRTTCWDGKLEYPTCAKR
# partner: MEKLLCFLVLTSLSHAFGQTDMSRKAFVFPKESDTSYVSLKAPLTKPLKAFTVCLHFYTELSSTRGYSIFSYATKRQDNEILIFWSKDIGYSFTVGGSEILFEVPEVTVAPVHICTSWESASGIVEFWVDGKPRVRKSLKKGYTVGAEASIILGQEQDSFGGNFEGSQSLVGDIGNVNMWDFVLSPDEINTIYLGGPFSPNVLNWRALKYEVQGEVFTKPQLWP
# B2: Complement factor H (Homo sapiens), P08603-2 (parent)
# chain: MRLLAKIICLMLWAICVAEDCNELPPRRNTEILTGSWSDQTYPEGTQAIYKCRPGYRSLGNVIMVCRKGEWVALNPLRKCQKRPCGHPGDTPFGTFTLTGGNVFEYGVKAVYTCNEGYQLLGEINYRECDTDGWTNDIPICEVVKCLPVTAPENGKIVSSAMEPDREYHFGQAVRFVCNSGYKIEGDEEMHCSDDGFWSKEKPKCVEISCKSPDVINGSPISQKIIYKENERFQYKCNMGYEYSERGDAVCTESGWRPLPSCEEKSCDNPYIPNGDYSPLRIKHRTGDEITYQCRNGFYPATRGNTAKCTSTGWIPAPRCTLKPCDYPDIKHGGLYHENMRRPYFPVAVGKYYSYYCDEHFETPSGSYWDHIHCTQDGWSPAVPCLRKCYFPYLENGYNQNYGRKFVQGKSIDVACHPGYALPKAQTTVTCMENGWSPTPRCIRVSFTL
# partner: B1 partner
# Variants of: B1
# Conditions: with crp_human CRP
row,effect of a mutation on the interaction,Variant
1,decreasing interaction strength,Y402H

# Variants of: B2
# Conditions: with crp_human CRP
row,effect of a mutation on the interaction,Variant
1,decreasing interaction strength,Y402H

# Reference: IntAct's records for PubMed 21930971
